The text below walks through data of patent US20110172153A1 (GENERAL HOSPITAL, published 2011).

What is called IC50 is the point on the concentration scale where inhibition reaches its midpoint. Read a high IC50 as weaker potency in that assay.

Experiment [1] deals with T1, human parathyroid hormone receptor (PTHR) (human, UniProt Q03431 27-593).
T1 construct: Assayed in membranes of HKRK-B7 cells or of transiently transfected COS-7 cells, or on intact HKRK-B7/HKRK-B64/COS-7 cells; RG = co-transfected with negative-dominant Galpha-s; R0 = receptor alone plus GTPgammaS; also called hPTHR; human PTH receptor
T1 sequence: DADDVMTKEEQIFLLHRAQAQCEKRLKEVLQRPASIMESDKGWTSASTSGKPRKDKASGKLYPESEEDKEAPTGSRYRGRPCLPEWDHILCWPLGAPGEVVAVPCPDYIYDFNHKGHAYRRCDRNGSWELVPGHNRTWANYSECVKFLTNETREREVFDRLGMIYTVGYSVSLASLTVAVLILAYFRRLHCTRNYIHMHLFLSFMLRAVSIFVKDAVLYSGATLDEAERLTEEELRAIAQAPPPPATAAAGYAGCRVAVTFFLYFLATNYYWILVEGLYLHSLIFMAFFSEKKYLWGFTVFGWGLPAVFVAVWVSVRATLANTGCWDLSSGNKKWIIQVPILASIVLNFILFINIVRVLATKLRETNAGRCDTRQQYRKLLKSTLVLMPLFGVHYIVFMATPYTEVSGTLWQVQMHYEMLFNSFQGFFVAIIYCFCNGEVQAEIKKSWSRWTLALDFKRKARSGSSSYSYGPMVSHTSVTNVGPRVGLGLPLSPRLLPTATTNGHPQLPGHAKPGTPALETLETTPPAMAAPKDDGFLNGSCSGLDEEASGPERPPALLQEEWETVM
Nature of the experiment: competition radioligand binding, hPTHR R0 conformation. How it is done: (§1) Binding Studies. Binding studies were performed using cell membranes as described (Dean et al., Mol Endocrinol 20(4):931-43 (2006)). […] Reactions contained a total membrane protein concentration of 20 to 100 μg/mL, and a total radioactivity concentration of approximately 150,000 cpm/ml. Unlabeled peptide ligands and/or GTPγS (Sigma-Aldrich Inc. St. Louis, Mo.) were added to the reactions as indicated. At the end of the reaction, bound and free radioligand were separated by vacuum filtration using a 96-well vacuum filter plate and vacuum filter apparatus (Multi-Screen system with Durapore HV, […] filters; Millipore Corp., Milford, Mass.); the air-dried filters were then detached from the plate and counted for gamma radioactivity using a gamma counter.
(§2) To assess the capacities of various unlabeled peptide ligands to bind to the G protein-uncoupled and G protein-coupled PTHR conformations (R⁰ and RG, respectively), membranes were prepared from transiently transfected COS-7 cells and the following assay conditions.

Experiment [2] addresses T1, human parathyroid hormone receptor …. Nature of the experiment: competition radioligand binding, human PIR RG. How it is done:
as §1, §2

The target of experiment [3] is T2, rat parathyroid hormone receptor (PTHR) (rat, UniProt P25961 27-591).
T2 construct: Endogenous in ROS17/2.8 cells (membranes or intact cells); also called rat PTHR; rat PIR
T2 sequence: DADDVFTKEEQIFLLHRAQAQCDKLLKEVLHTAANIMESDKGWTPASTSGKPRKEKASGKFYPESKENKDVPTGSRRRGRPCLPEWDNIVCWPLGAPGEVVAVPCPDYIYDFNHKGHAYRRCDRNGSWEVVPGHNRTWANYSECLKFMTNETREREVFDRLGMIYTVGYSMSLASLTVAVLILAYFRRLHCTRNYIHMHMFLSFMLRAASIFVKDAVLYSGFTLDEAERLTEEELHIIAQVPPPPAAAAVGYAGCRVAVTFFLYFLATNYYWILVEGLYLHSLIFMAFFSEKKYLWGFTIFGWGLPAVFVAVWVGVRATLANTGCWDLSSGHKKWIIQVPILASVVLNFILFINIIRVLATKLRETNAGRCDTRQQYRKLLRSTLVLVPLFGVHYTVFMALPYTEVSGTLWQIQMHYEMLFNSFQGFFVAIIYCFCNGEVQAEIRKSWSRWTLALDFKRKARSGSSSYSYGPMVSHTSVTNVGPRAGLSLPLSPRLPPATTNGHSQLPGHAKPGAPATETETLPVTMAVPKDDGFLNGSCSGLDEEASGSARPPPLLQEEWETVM
Nature of the experiment: competition radioligand binding, rat PIR RG.

Experiment [4] deals with T1, human parathyroid hormone receptor …. Nature of the experiment: competition radioligand binding, human PIR R0. As to the method:
as §1, §2

Experiment [5] has the same target. Nature of the experiment: ratio of R0 IC50 to RG IC50, hPTHR.
The target is the same in experiment [6]. Nature of the experiment: cell-based or functional assay.
Experiment [7] shares this target. Nature of the experiment: competition radioligand binding, hPTHR RG conformation. How it is done:
as §1, §2

The target in experiment [8] is T2, rat parathyroid hormone receptor (PTHR). Nature of the experiment: competition radioligand binding, rat PIR R0.
For experiment [9], the target named is T1, human parathyroid hormone receptor …. Nature of the experiment: ratio of R0 IC50 to RG IC50, human PTH1 receptor.
Experiment [10] shares this target. Nature of the experiment: competition radioligand binding, human PTH1 receptor RG. How it is done:
as §1, §2

For experiment [11] the target is unchanged. Nature of the experiment: competition radioligand binding, human PTH1 receptor R0. As to the method:
as §1, §2

Ends that are not written are not given here.

B1: A18,22,L25,K26-PTHrP(1-28)NH (peptide)
peptide: AVSEHQLLHDKGKSIQDARRRAFLLKLI-NH2
modifications: not fully specified
notes: also called [Ala^18,22,Leu^25,Lys^26]-PTHrP(1-28); AALK-PTHrP(1-28)
On to B1, for which the IC50 in experiment [1] stood at 310 nM; in experiment [2], 0.04 nM; in experiment [3], 0.16 nM; in experiment [4] it was 310 nM; in [7] it was 0.04 nM; in [8], 34.9 nM. Also, the R0/RG selectivity in [5] turned out to be 6970. For the same molecule, the “cAMP in HKRK-B7 cells, EC50” value in [6] is 0.52 nM. Moreover, the “cAMP in HKRK-B7 cells, Max” value in experiment [6] is 56.4 pm/well.

B2: E18,A22,L25,K26-PTHrP(1-30)NH (peptide)
peptide: AVSEHQLLHDKGKSIQDERRRAFLLKLIAE-NH2
notes: also called EALK-PTHrP(1-30)
B2: the IC50 came to 945 nM in [1]; 0.08 nM in experiment [2]; 0.21 nM in experiment [3]; 945 nM in experiment [4]; 0.08 nM in experiment [10]; 945 nM in experiment [11]. Besides, the half-inhibitory concentration (IC50) in experiment [7] was found to be 0.08 nM; in experiment [8], 76.3 nM. Further, the R0/RG ratio in [9] is 11800. Further, in [5], the R0/RG selectivity came out at 11200.
